The values that follow come from patent US20070185311A1 (EPIX MEDICAL INC A DELAWARE, published 2007).

A word on the Kd: it is the concentration at which binding is half-saturated. Read a low Kd as higher affinity. A word on the Ki: it is a measure of affinity in units of concentration, obtained from inhibition or displacement. A high value points to a looser hold on the target.

Starred links: 1 amine or outer side, 2 acyl side, 3 side chain; linkers in the order of their positions; H or OH if unused. Positions of bridges follow the written chain, without caps; N, C: chain ends. Non-standard residues stand in square brackets, D forms with d. No end group written: not given here. 4‑methoxycoumarin = 4-Methoxycoumarin, an N-terminal optical probe label; Phe(4-OMe) = COc1ccc(C[C@H](N[*:1])C(=O)[*:2])cc1; Ser(Bzl) = O=C([C@H](COCc1ccccc1)N[*:1])[*:2]; Tyr(3-Cl) = N[C@@H](Cc1ccc(O)c(Cl)c1)C(=O)O; Bip = N[C@@H](Cc1ccc(-c2ccccc2)cc1)C(=O)O; Tyr(3-I) = N[C@@H](Cc1ccc(O)c(I)c1)C(=O)O; 2Nal = N[C@@H](Cc1ccc2ccccc2c1)C(=O)O; Hyp = O=C(O)[C@@H]1C[C@@H](O)CN1; Cha = N[C@@H](CC1CCCCC1)C(=O)O; Ahx = NCCCCCC(=O)O; βAla = NCCC(=O)O

Experiment [1] deals with DD(E) fragment of fibrin. As to the kind of experiment: affinity of optical contrast agent to fibrin DD(E) fragment.
The target of experiment [2] is DD(E) fragment of fibrin. As to the kind of experiment: affinity of fluorophore-labelled peptide; target taken as fibrin DD(E) fragment.
The target in experiment [3] is DD(E) fragment of fibrin. As to the kind of experiment: affinity to soluble fibrin DD(E) fragment.
Experiment [4] addresses T1, DD(E) fragment of fibrin.
T1 chain 1: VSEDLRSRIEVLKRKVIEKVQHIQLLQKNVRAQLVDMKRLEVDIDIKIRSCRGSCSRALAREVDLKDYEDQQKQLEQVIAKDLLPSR
T1 chain 2: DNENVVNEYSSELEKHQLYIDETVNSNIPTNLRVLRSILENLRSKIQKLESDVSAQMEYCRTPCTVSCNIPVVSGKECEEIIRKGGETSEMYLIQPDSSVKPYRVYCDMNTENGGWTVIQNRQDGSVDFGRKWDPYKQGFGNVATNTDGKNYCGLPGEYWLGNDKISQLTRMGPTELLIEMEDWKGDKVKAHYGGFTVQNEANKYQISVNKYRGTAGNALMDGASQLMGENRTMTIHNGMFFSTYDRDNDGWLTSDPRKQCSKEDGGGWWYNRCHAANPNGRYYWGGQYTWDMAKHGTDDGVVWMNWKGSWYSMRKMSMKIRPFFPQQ
T1 chain 3: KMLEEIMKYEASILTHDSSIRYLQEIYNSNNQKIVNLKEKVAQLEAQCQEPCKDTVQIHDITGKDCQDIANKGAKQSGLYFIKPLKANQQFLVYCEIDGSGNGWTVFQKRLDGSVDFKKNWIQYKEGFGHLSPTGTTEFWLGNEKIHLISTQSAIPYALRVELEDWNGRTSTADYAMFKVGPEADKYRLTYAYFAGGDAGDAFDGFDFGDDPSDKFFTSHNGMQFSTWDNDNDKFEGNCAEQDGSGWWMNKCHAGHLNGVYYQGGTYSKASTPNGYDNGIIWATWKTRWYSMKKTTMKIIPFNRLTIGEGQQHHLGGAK
T1 chain 4: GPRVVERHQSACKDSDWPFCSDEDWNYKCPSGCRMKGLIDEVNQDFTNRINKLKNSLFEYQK
T1 chain 5: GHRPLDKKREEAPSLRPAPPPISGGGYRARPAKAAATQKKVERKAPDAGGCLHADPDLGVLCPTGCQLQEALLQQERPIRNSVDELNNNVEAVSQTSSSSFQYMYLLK
T1 chain 6: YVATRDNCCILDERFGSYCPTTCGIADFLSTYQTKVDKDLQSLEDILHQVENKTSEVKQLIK
As to the kind of experiment: affinity to DD(E) fragment of fibrin.

Experiment [5] has as its target T1, DD(E) fragment of fibrin. As to the kind of experiment: affinity of optical contrast agent to fibrin DD(E) fragment.
Experiment [6] concerns the target fibrin. As to the kind of experiment: Fibrin Affinity; method not stated.
Experiment [7] deals with DD(E) fragment of fibrin. As to the kind of experiment: affinity of the unlabelled peptide; target taken as fibrin DD(E) fragment.
Experiment [8] concerns the target T1, DD(E) fragment of fibrin. As to the kind of experiment: affinity to DD(E) fragment of fibrin.

For the molecule “Structure J: Fluor-Q-W-E-C-P-Y-G-L-C-W-I-Q (peptide)”, the dissociation constant (Kd) in experiment [1] is 55 nM; in experiment [2] it was 60 nM.

B1: Compound 32 (peptide)
peptide: LPCDYYGTCXD
modifications: not fully specified; Bip at 10; cyclized with thallium trifluoroacetate; C-terminus as -CO-NHCH2C6H4CH2NH2; Synthon #2 (bb(CO)DTPA chelates, Gd) coupled to the N- and C-terminal amines
The molecule B1 yielded a Kd in experiment [3] of 4700 nM.

The molecule {4‑methoxycoumarin}-QWECPYGLCWIQ (cysteine pairing not given here) [Compound N: 4-methoxycoumarin derivative of …] showed a dissociation constant (Kd) in experiment [2] of 200 nM.

In experiment [4], WEC[Hyp][Tyr(3-Cl)]GLCYIQ (disulfide 3-8 (inferred)) [W-E-C-Hyp-Y(3-Cl)-G-L-C-Y-I-Q] returned a Kd of no more than 300 nM.

fluorescein-[Ahx]GFHC[Hyp][Tyr(3-I)]DLCHI (disulfide 5-10 (inferred)) [Structure C: Fluor-Ahx-G-F-H-C-Hyp-Y(3-I)-D-L-C-H-I] returned a Kd in experiment [5] of 97 nM.

Consider fluorescein-[Ahx]GGFHC[Hyp][Tyr(3-I)]DLCHI (disulfide 6-11 (inferred)) [Structure E: Fluor-Ahx-G-G-F-H-C-Hyp-Y(3-I)-D-L-C-H-I], for which, in experiment [5], binding was put at a Kd of 90 nM. This Kd and that of the molecule before are within 1.5-fold of each other.

For fluorescein-KFHC[Hyp][Tyr(3-I)]DLCHI (disulfide 4-9 (inferred)) [Structure F: Fluor-K-F-H-C-Hyp-Y(3-I)-D-L-C-H-I], the Kd in experiment [5] amounted to 212 nM. Against the preceding molecule, the Kd is about 2.4-fold higher.

For the molecule FHC[Hyp][Tyr(3-Cl)]GLCHIL (disulfide 3-8 (inferred)) [F-H-C-Hyp-Y(3-Cl)-G-L-C-H-I-L], the Kd in experiment [4] was no more than 400 nM.

Regarding QWECPYGLCWIQ […], the inhibition constant (Ki) in experiment [6] was 4700 nM. For the same molecule, in experiment [7], the dissociation constant (Kd) is 3000 nM.

FHC[Hyp][Tyr(3-Cl)][2Nal]LCHIL (disulfide 3-8 (inferred)) [F-H-C-Hyp-Y(3-Cl)-(2-Nal)-L-C-H-I-L] gave a Kd in experiment [4] of no more than 500 nM.

The molecule fluorescein-KWFHC[Hyp][Tyr(3-I)]DLCHI (disulfide 5-10 (inferred)) [Structure H: Fluor-K-W-F-H-C-Hyp-Y(3-I)-D-L-C-H-I] returned a Kd in experiment [5] of 119 nM.

For the molecule LPCDYYGTCLD (not fully specified; cysteine pairing not given here) [L-P-C-D-Y-Y-G-T-C-L-D], in experiment [8], the Kd is no more than 10000 nM.

For the molecule fluorescein-[βAla]FHC[Hyp][Tyr(3-I)]DLCHI (disulfide 4-9 (inferred)) [Structure A: Fluor-beta-A-F-H-C-Hyp-Y(3-I)-D-L-C-H-I], in experiment [1], the Kd was found to be 136 nM.

In turn, FHC[Hyp][Tyr(3-Cl)]FLCHIL (disulfide 3-8 (inferred)) [F-H-C-Hyp-Y(3-Cl)-F-L-C-H-I-L] registered a Kd in experiment [4] of no more than 500 nM.

With fluorescein-[Ahx]FHC[Hyp][Tyr(3-I)]DLCHI (disulfide 4-9 (inferred)) [Structure B: Fluor-Ahx-F-H-C-Hyp-Y(3-I)-D-L-C-H-I], the Kd in experiment [1] is 99 nM. This lies in the double-digit nanomolar range.

Molecule [Ser(Bzl)]HCPYDLCHIL (disulfide 3-8 (inferred)) [S(Bzl)-H-C-P-Y-D-L-C-H-I-L] registered a dissociation constant Kd in experiment [4] of no more than 400 nM.

Consider tetramethylrhodamine-QWECPYGLCWIQ (cysteine pairing not given here) [Compound L: tetramethylrhodamine derivative of …], for which the Kd in experiment [2] stood at 2000 nM.

Take [Phe(4-OMe)]WC[Hyp][Tyr(3-I)]DLCHI (disulfide 3-8 (inferred)) [F(4-OMe)-W-C-Hyp-Y(3-I)-D-L-C-H-I]: the dissociation constant Kd in experiment [4] was no more than 500 nM.

Take fluorescein-[Ahx]WFHC[Hyp][Tyr(3-I)]DLCHI (disulfide 5-10 (inferred)) [Structure D: Fluor-Ahx-W-F-H-C-Hyp-Y(3-I)-D-L-C-H-I]: binding in experiment [5] was put at a Kd of 61 nM.

HEC[Hyp][Tyr(3-Cl)]GLCHIQ (disulfide 3-8 (inferred)) [H-E-C-Hyp-Y(3-Cl)-G-L-C-H-I-Q] displayed a dissociation constant Kd in experiment [4] of no more than 400 nM.

In experiment [5], fluorescein-WFHCPYDLCHIL (disulfide 4-9 (inferred)) [Structure K: Fluor-W-F-H-C-P-Y-D-L-C-H-I-L] came in with a dissociation constant Kd of 60 nM.

Molecule [Cha]PCDYYGTC[Bip]D (cysteine pairing not given here) [Cha-P-C-D-Y-Y-G-T-C-Bip-D] registered a Kd in experiment [8] of no more than 10000 nM.
